Measured values: PMC4465127

Molecular target: LIN-3^EGF (the purified EGF domain from LIN-3) (C. elegans)
Assay: SPR; Biacore 3000; LIN-3 amine-coupled on CM5 chip, sLET-23 injected; steady state, single-site model; 10 mM Hepes pH 8.0, 150 mM NaCl, 3 mM EDTA, 0.005% P-20, room temperature

Kd: 2 to 4 µM
B1: LET-23 extracellular region (sLET-23) (domain or fragment)
chain: FGNSNAQLWKRCVSPQDCLCSGTTNGISRYGTGNILEDLETMYRGCRRVYGNLEITWIEANEIKKWRESTNSTVDPKNEDSPLKSINFFDNLEEIRGSLIIYRANIQKISFPRLRVIYGDEVFHDNALYIHKNDKVHEVVMRELRVIRNGSVTIQDNPKMCYIGDKIDWKELLYDPDVQKVETTNSHQHCYQNGKSMAKCHESCNDKCWGSGDNDCQRVYRSVCPKSCSQCFYSNSTSSYECCDSACLGGCTGHGPKNCIACSKYELDGICIETCPSRKIFNHKTGRLVFNPDGRYQNGNHCVKECPPELLIENDVCVRHCSDGHHYDATKDVRECEKCRSSSCPKICTVDGHLTNETLKNLEGCEQIDGHLIIEHAFTYEQLKVLETVKIVSEYITIVQQNFYDLKFLKNLQIIEGRKLHNVRWALAIYQCDDLEELSLNSLKLIKTGAVLIMKNHRLCYVSKIDWSSIITSKGKDNKPSLAIAENRDSKLCETEQRVCDKNCNKRGCWGKEPEDCLECKTWKSVGTCVEKCDTKGFLRNQTSMKCERCSPECETCNGLGELDCLTCRHKTLYNSDFGNRMECVHDCPVSHFPTQKNVCEKCHPTCYDNGCTGPDSNLGYGGCKQCKYAVKYENDTIFCLQSSGMNNVCVENDLPNYYISTYDTEGVIETHCEKCSISCKTCSSAGRNVVQNKCVCKHVEYQPNPSERICMDQCPVNSFMVPDTNNTVCKKCHHECDQNYHCANGQSTGCQKCKNFTVFKGDIAQCVSECPKNLPFSNPANGECLDYDIASRQRKTRM
